The results in this text go back to publication PMC10409785 (Nature Communications, 2023).

The target of the assay is T1, human Uba7 (human, UniProt P41226 1-1012, Cys599 crosslinked to UBE2L6 Cys86 (in the cryo-EM complexes only)).
T1 construct: also called hUba7; E1; source: E. coli BL21 codon plus or Hi5 insect cells (baculovirus), purified (Ni-NTA, Superdex 200, Enrich Q); not shown: His6 (insect cell construct), N-terminal, cleaved
T1 sequence: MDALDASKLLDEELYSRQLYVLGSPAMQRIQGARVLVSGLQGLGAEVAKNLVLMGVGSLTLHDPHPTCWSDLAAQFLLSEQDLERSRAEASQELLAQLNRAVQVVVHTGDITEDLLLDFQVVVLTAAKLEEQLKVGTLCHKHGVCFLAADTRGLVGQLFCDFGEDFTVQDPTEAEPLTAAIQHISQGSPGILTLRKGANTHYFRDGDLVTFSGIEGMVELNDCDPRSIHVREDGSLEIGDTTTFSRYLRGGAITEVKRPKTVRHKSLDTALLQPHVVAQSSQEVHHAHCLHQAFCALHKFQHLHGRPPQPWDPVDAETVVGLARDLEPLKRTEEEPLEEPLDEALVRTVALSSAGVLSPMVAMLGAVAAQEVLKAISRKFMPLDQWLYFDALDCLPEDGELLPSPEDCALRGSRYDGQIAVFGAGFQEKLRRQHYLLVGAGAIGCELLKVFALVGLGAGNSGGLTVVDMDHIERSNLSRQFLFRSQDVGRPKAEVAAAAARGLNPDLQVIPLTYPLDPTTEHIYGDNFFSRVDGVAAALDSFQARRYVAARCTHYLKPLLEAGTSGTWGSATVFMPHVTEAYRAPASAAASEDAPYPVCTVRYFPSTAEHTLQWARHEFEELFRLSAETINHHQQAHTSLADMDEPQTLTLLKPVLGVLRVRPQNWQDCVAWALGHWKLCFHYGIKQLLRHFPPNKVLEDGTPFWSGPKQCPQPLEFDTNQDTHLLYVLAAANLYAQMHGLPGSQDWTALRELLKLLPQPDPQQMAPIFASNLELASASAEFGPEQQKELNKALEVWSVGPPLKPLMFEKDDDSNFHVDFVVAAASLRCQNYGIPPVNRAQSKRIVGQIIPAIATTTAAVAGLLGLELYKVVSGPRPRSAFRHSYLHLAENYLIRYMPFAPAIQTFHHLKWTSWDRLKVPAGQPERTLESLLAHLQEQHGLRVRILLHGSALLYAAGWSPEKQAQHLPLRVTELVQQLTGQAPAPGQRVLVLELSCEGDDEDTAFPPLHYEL
Kind of assay: cryo-EM structure; double-loaded Uba7-UBE2L6-ISG15(t)/ISG15(a) mimetic: ISG15 C76S isopeptide-linked to UBE2L6 L121K, UBE2L6 Cys86 (Aldrithiol-4 activated) crosslinked to Uba7 Cys599, then 1.2 molar excess of ISG15, ATP and Mg2+ for 30 min at 4 °C; frozen at 3.0 mg/ml. To be noted: both partners purified.

B1: UBE2L6 (C98S/C102S/L121K) (enzyme, human)
chain: MASMRVVKELEDLQKKPPPYLRNLSSDDANVLVWHALLLPDQPPYHLKAFNLRISFPPEYPFKPPMIKFTTKIYHPNVDENGQICLPIISSENWKPSTKTSQVLEALNVLVNRPNIREPKRMDLADLLTQNPELFRKNAEEFTLRFGVDRPS
modifications: Lys121 (L121K) isopeptide-linked to Gly157 of ISG15 C76S; Cys86 activated with Aldrithiol-4 and crosslinked to Uba7 Cys599
notes: The 6XHis-tag was cleaved with TEV protease 'when required'; source: E. coli BL21 codon plus, purified (Ni-NTA, Superdex 75, Enrich Q)
With B1, the binding result is on record as “binds”.
